{
  "source": "the nanobody polyreactivity screen of Harvey et al. (2022)",
  "data": [
    {"assay": "yeast display, Sf9 membrane polyspecificity reagent, FACS + sequencing; frameworks hold sequencing errors", "summary_of_the_method": "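Genes from sorted yeast were amplified by colony PCR, read by MiSeq 2 × 250 sequencing and filtered on CDR length. These cells carried a synthetic nanobody library in Saccharomyces cerevisiae BJ5465 and were sorted by FACS into low and high (top ~1%) gates on anti-HA and streptavidin fluorescence. Polyreactivity is labelled according to the gate of origin.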", "values": [
      {"sequence": "QVQLEESGGGLVQAGGRLRLSCAASVSIFGVYTMGWYRPAPGKERELVAAIRGVGSTNYADSVKGRFTISRDNAKNTVYLQMKSLKTEDTAVYYCAARYAYGMWGQGTHVTVSS", "polyreactivity (PSR sort gate)": "low polyreactivity"},
      {"sequence": "QVQLEESGGGLVQAGGSHRLSCAASGIIFSKYAMGWYRPAPGKEREFGAAISQRGGRTYYADSVKGRFTISRDNAKNTVYLQMNSLNTEDTAVYYCAATGTGGVYPLDYGGQGTQVTVSS", "polyreactivity (PSR sort gate)": "high polyreactivity"},
      {"sequence": "QVQLEESGGGLVQAGGSHRLSCAASGSIFGGNAMGWYRQAPGKERELVAAITQSGGRTYYADSVKGRCTISRDTAKNTVYLQMNSLKPEDTAVYYCNRVYKSQTTDSYPLSYYYWGQGTQVTVSS", "polyreactivity (PSR sort gate)": "high polyreactivity"},
      {"sequence": "QVQLEESGGGLVQAGGSLRIICADSGINFRYNAMGLYRKAPGKERELVAGIRKRGGSTYYADSVKGRFTISRDNANNTVYLQMNSLKPEDTEVYYCAALCPTTGRNYHSTPYEYWGQGTQVTVSS", "polyreactivity (PSR sort gate)": "high polyreactivity"},
      {"sequence": "QVQLEESGGGLVQAGGSLRISCAASGFTFKYYVMGWYRQAPGKERFVAAITGSGASTYYADSVKGRFTISRDNAKNTVYLQMNSLKPEDTAVYYCNAVYYAGRYRYDYWGQGTQVTVSS", "polyreactivity (PSR sort gate)": "high polyreactivity"},
      {"sequence": "QVQLEESGGGLVQAGGSLRISCAASVRTFKYYAMGWNRQAPGKETELVAAISWSGSSTSYADSVKGRFTISRDHAKNTVYLQMNSLKPEDTAVYYCAAATYRQFTGTYDYWGQGTQVTVSS", "polyreactivity (PSR sort gate)": "high polyreactivity"},
      {"sequence": "QVQLEESGGGLVQAGGSLRLICPASGRTFIRKAMGRYRQAPGKERELVASIRWSGGSTYYADSVKGRFTISRDNAKNTVYLQMNSLKTEDTAVYYCAASRWRPLERGTTWLHDYWGQGSQVTVSS", "polyreactivity (PSR sort gate)": "low polyreactivity"},
      {"sequence": "QVQLEESGGGLVQAGGSLRLSCAASARTIFGYAMGWYRQAPGKERELVAAINWGGASTYYADSVKGRFTISRDNAKNTVYLQMNSLKPEDTAVYYCAADSVPSRPTYGRYDYWGQGTQVTVSS", "polyreactivity (PSR sort gate)": "low polyreactivity"},
      {"sequence": "QVQLEESGGGLVQAGGSLRLSCAASGAIFYAYAMGCYRQATGKEREFVAAITRRGGNTYYADSVKGRFTISRDNAKNTVYVQMNSLKPEDTEVYYSAADAGGGTFDYWGHGTQVTVSS", "polyreactivity (PSR sort gate)": "low polyreactivity"},
      {"sequence": "QVQLEESGGGLVQAGGSLRLSCAASGFIFAQNAMGWYRQAPGKERELVARIRVSGTRTYYADSVKGRFTISRDNAKNTVYLQMNSLKQEDTAVYYCAAVPYTYDFGYKRFYWGQGTQVTVSS", "polyreactivity (PSR sort gate)": "high polyreactivity"},
      {"sequence": "QVQLEESGGGLVQAGGSLRLSCAASGFIFDYYMGWYIQAPGKERELVARISYTGGSTYYADCVKGRFTISRDNAKNTVYLQMNSLKPEDTAVYYCATRGAEAERFASYDFDYWGQGTQVTVSS", "polyreactivity (PSR sort gate)": "low polyreactivity"},
      {"sequence": "QVQLEESGGGLVQAGGSLRLSCAASGFIFSRNAMGWYRQAPGKERELVAAITGSGARTYYADSVKGRFTISRDNAKNTVYLQMNSLKPEDTAVYYCNADARGGIYFRGVKFDYWGLGTQVTVSS", "polyreactivity (PSR sort gate)": "high polyreactivity"},
      {"sequence": "QVQLEESGGGLVQAGGSLRLSCAASGFIFYRYAMGWYRQAPGKERELVAALTTGGDRTYYADSVKGRFTISRDNAKNTVYLQMNSLKPEDPAVYYCATLWSYYYATIYLDGYDYWGQGTQVTVSS", "polyreactivity (PSR sort gate)": "high polyreactivity"},
      {"sequence": "QVQLEESGGGLVQAGGSLRLSCAASGFISFAYAMGWYIQAPGKERELVAGISRSGDSTYYADSVKGRFTISRDNAKNTVYLQMNSLKPEDTAVYYCAARQVDWFDYTTAQVGSYKVNYWGQGTQVTVSS", "polyreactivity (PSR sort gate)": "low polyreactivity"},
      {"sequence": "QVQLEESGGGLVQAGGSLRLSCAASGFTFARNGMGWYRQAPVKESEFVAAITRSGGRTYYADSVKGRFTISRDNAKNTVYLQMNSLKPEDTAVYYCAAATSYGKSEYDYWGQGTQVTVSS", "polyreactivity (PSR sort gate)": "high polyreactivity"},
      {"sequence": "QVQLEESGGGLVQAGGSLRLSCAASGFTFDGYAMGWYRPAPGKERELVAAITSSGGSTYYADSVKGRFTISRDNTKNTVYLQMNSLKPEDTAVYYCNAVYYYGYYYYWTEFNYWGQGTQVTVSS", "polyreactivity (PSR sort gate)": "high polyreactivity"},
      {"sequence": "QVQLEESGGGLVQAGGSLRLSCAASGFTFRVYAMGWYRQAPGKERELVAAISSGGSTNYADSVKGRFTISRDNAKNTVYLQMNSLKPEDTAVYYCAARQRYYSERPQYSGLYYWGQGTQVTVSS", "polyreactivity (PSR sort gate)": "high polyreactivity"},
      {"sequence": "QVQLEESGGGLVQAGGSLRLSCAASGFTFTDYALGWYRQAPGTERELVAVITYDSTYYADPVKGRFTISRDNAKNTVYLQMNSLNPEDTAVYFCAADSYDWGDFDYWGQGTQVTVSS", "polyreactivity (PSR sort gate)": "low polyreactivity"},
      {"sequence": "QVQLEESGGGLVQAGGSLRLSCAASGFTFTYYAMGWYRQAPGKERELVASISYSGGSTYYADSVKGRFTISRDNAKNTVYLQMNSLKPEDTAVYYGAARTRHVHYGYWGQVTQVTVSS", "polyreactivity (PSR sort gate)": "high polyreactivity"},
      {"sequence": "QVQLEESGGGLVQAGGSLRLSCAASGFTFYRYAMGWYRQAPGKERELVAAITWSGGSTYYADSVKGRFTISRDNAKNTVYLQMNSLKPEDTGVYYCNAAAYYPTNYGGYLFEYWGQGTQVTVSS", "polyreactivity (PSR sort gate)": "low polyreactivity"},
      {"sequence": "QVQLEESGGGLVQAGGSLRLSCAASGFTLPLYAMGWYIQAPGKERELVAAISSGGGRTYYADSVKGRFTISPDYEKNSVYLQMNSLKPEDTAVYYCNVDRWWLGRYKFYYWGQGTQVTVSS", "polyreactivity (PSR sort gate)": "high polyreactivity"},
      {"sequence": "QVQLEESGGGLVQAGGSLRLSCAASGGTLRYYVMGSYRQAPGKERELVAAISWSGDSTYYADSVKGRFTISRDNAKNTVYLQMNSLKPEDTAVYYCAATYYLTYYYGQANHGYDYWGQGTQVTVSS", "polyreactivity (PSR sort gate)": "low polyreactivity"},
      {"sequence": "QVQLEESGGGLVQAGGSLRLSCAASGIFTRYAMGWYRQAPGKERELVAAISRGGGSTYYADTVKGRFTISRDNAKNTVYLLMNSLKPEDTAVYYCYTYKRPRSPGPKFYYWGQGTQVTVSS", "polyreactivity (PSR sort gate)": "high polyreactivity"},
      {"sequence": "QVQLEESGGGLVQAGGSLRLSCAASGIIFGTNAMGWYRQAPGKERELVATISWRGGSTYYADSVKGRFTISRDNAKNTVYLQMTSLKPEDTAVYYCAAGASGQRAYRRYYWGQGTQVTVSS", "polyreactivity (PSR sort gate)": "high polyreactivity"},
      {"sequence": "QVQLEESGGGLVQAGGSLRLSCAASGIIFSGNAMGWYRQAPGKERELVAANTRSGGTTYYADSVKGRFTISRDNAKNTVYLQMNSLKPEDTAVYYCAASYPLYVFYVSGYDYWGQGTQVTVSS", "polyreactivity (PSR sort gate)": "low polyreactivity"},
      {"sequence": "QVQLEESGGGLVQAGGSLRLSCAASGIIFSGYAMGWYRQAPGKERELVASIRSGSNTYYADSVKGRFTISRDNAKNTVYLQMISLKPEDTAVYYCAARVVPATFRFIRYPHPYYYWGQGTQVTVSS", "polyreactivity (PSR sort gate)": "low polyreactivity"},
      {"sequence": "QVQLEESGGGLVQAGGSLRLSCAASGIIFSIYAMGLYRKAPGKERELVAAITYSGGRTYYADSVKGRFTISRDNAKNTVYLQMNSLKPEDTAVYYCAAVVYGEYYWGQGTQVTVSS", "polyreactivity (PSR sort gate)": "high polyreactivity"},
      {"sequence": "QVQLEESGGGLVQAGGSLRLSCAASGIISTVYAMGWYRQAPGKERELVAAISCSGGSTYYADSLKGSFTISRDNENNTVYLQMNSLKPEDTAVYYCSKGYQYQGNSYGYWGQGTQVTVSS", "polyreactivity (PSR sort gate)": "low polyreactivity"},
      {"sequence": "QVQLEESGGGLVQAGGSLRLSCAASGINFQGNARGWYRQAPGKERELVASITAGGDTTYYADSVKGRFTISRDNAKNTFYLQLNSVKPEDSEVYDCAVYSWLDADDSYPDSILVDYWGQGTQVTVSS", "polyreactivity (PSR sort gate)": "low polyreactivity"},
      {"sequence": "QVQLEESGGGLVQAGGSLRLSCAASGITIYYYAMGWYRQAPGKERELVAAISRSAGSTSYADSVKGRFTISRDNAKNTVYLQMNSLKTEDNAVYYCAAQGWHLDSQWQLYNYYYWGQGTQVTVSS", "polyreactivity (PSR sort gate)": "high polyreactivity"},
      {"sequence": "QVQLEESGGGLVQAGGSLRLSCAASGLIFARNAMGWYRQAPGKERELVAAISKRGGSTFYADSVKGRFTISRDNAKNTVYLQMKSLNPEDTAVYYCNARSSETWHGDYWGQGTQVTVSS", "polyreactivity (PSR sort gate)": "high polyreactivity"}
    ]}
  ]
}
